From article PMC5238629, “Streptavidin-coated gold nanoparticles: critical role of oligonucleotides on stability and fractal aggregation”

Target: streptavidin (Streptomyces avidinii, UniProt P22629 25-183)
Experiment: SPR; binding through the 3'-biotin, not the DNA sequence; 10 uM BiotinDNA in water gave about 90 RU; about 70 RU lost on displacement by free biotin (0.01-10.24 mM); SPR: 10 uM BiotinDNA in water, 10 uL/min, immobilized streptavidin; displacement by free biotin in water; temperature and pH not given
Conditions: protein: commercial; chain copies: 4; single strand

streptavidin, sequence (P22629 25-183): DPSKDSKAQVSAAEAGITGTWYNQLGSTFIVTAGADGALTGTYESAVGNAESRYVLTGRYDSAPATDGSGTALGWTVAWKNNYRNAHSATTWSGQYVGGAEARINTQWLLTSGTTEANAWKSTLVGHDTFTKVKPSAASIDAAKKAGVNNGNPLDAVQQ

B1: BiotinDNA (ssDNA)
DNA: AGCAGCCTAAG
modifications: 3'-biotin
B1: binds.
